Measured values published in patent publication US20260185118A1 (priority 2023, published 2026).

Experiments:
CsMYC2 protein = format: cell-based, Citrus sinensis; settings: tobacco leaves, 35S:CsMYC2-myc co-injected, versus 35S:YFP
[1] = test system: Diaphorina citri Kuwayama; format: in vivo; settings: overexpressing leaves versus blank vector control leaves, 100 psyllids starved 2 h, counted after 40 min
CsMYC2 [2] = format: biochemical, Citrus sinensis; settings: with AtUBA1, AtUBC8 and ubiquitin, anti-MBP immunoblot
CsPUB21 = format: biochemical, Citrus sinensis; settings: in the presence of E1 (AtUBA1) and E2 (AtUBC8), anti-c-myc immunoblot
CsMYC2 [3] = format: cell-based, Citrus sinensis; settings: tobacco leaves, 2-3 days, cytoplasm and nucleus
CsMYC2 [4] = format: binding, Citrus sinensis; settings: yeast AH109, SD-Leu-Trp-His with 5 mM 3-AT

Molecule	accumulated level of the CsMYC2 protein on coexpression (CsMYC2 protein)	Diaphorina citri Kuwayama attracted by leaves of transgenic citrus [1]	polyubiquitination of the CsMYC2 protein in vitro (CsMYC2 [2])	E3 ubiquitin ligase activity (auto-ubiquitination) (CsPUB21)	interaction with CsMYC2 (BiFC) (CsMYC2 [3])	interaction with CsMYC2 (yeast two-hybrid) (CsMYC2 [4])
CsPUB21DN (protein, left off: large carriers) MILSWKRLRGGRGRRAGKKQPGVESGGEMELTTPNHFRAPISLDLMKDPVTLSTGITYDRENIEKWIHEDGNITCPVTNRVLTSFEPIPNHTIRRMIQDWCVENRSYGIERIPTPRIPVSSVEVFEINCNITTACKSEDQAGCRDLVAKIKKWTKESDRNKRCIVDNGAVSVLAEAFETFSKTCLDENVSVLEEILSTLTLLFPLAGEGLTYLGSASSMRCMVWFLKSGDLSRRRNAVLVLREIVSSDHRKVNVLLDIEGAIEPLFKLIKEPICPTATKASLVVVYRTITSASATEKPIQKFVDMGLVSLLLEMLVDAQRSLCEKALSVLDGLCSSDYGRGDAYNNSLIFPVIVKKILRVSDLATEFAVSILWKLCKNEEREEKTAFAEALQVGAFQKLLLLLQVGCADKTKEHVSELLKLLNPHRARLECIDSMDFKDLKRPF	this reduction was inhibited	about 40%	cannot ubiquitinate CsMYC2	does not show ubiquitination activity	does not affect the interaction with CsMYC2	does not affect the interaction with CsMYC2
CsPUB21: citrus plant U-box E3 ubiquitin ligase protein, amino acid sequence SEQ ID No. 1; overexpressed in citrus (protein) MILSWKRLRGGRGRRAGKKQPGVESGGEMELTTPNHFRCPISLDLMKDPVTLSTGITYDRENIEKWIHEDGNITCPVTNRVLTSFEPIPNHTIRRMIQDWCVENRSYGIERIPTPRIPVSSVEVFEINCNITTACKSEDQAGCRDLVAKIKKWTKESDRNKRCIVDNGAVSVLAEAFETFSKTCLDENVSVLEEILSTLTLLFPLAGEGLTYLGSASSMRCMVWFLKSGDLSRRRNAVLVLREIVSSDHRKVNVLLDIEGAIEPLFKLIKEPICPTATKASLVVVYRTITSASATEKPIQKFVDMGLVSLLLEMLVDAQRSLCEKALSVLDGLCSSDYGRGDAYNNSLIFPVIVKKILRVSDLATEFAVSILWKLCKNEEREEKTAFAEALQVGAFQKLLLLLQVGCADKTKEHVSELLKLLNPHRARLECIDSMDFKDLKRPF	–	63.5%	–	–	–	–
